Results published in publication PMC5364666, “Human MFAP1 is a cryptic ortholog of the Saccharomyces cerevisiae Spp381 splicing factor” (BMC Evolutionary Biology, 2017).

B1: S. cerevisiae Spp381 residues 177-248 (domain or fragment, UniProt P38282 177-248, looked up)
chain: NDEVDSEKERQKWFERQNERKQKHRRIQLAKQRESEEYEAKRFEAMQKGKDGNTKYDVILDKEKEKLDHKKQ
notes: also called scSpp381^177-248; source: E. coli Rosetta 2 (DE3) or BL21 (DE3) RIL, purified (Ni-NTA, TEV cleavage, SEC); not shown: His6, N-terminal, cleaved
B2: S. cerevisiae Prp38 (pre-mRNA processing factor 38 domain containing protein), full-length wild type (natural protein, UniProt Q00723 1-242, looked up)
chain: MAVNEFQVESNISPKQLNNQSVSLVIPRLTRDKIHNSMYYKVNLSNESLRGNTMVELLKVMIGAFGTIKGQNGHLHMMVLGGIEFKCILMKLIEIRPNFQQLNFLLNVKNENGFDSKYIIALLLVYARLQYYYLNGNNKNDDDENDLIKLFKVQLYKYSQHYFKLKSFPLQVDCFAHSYNEELCIIHIDELVDWLATQDHIWGIPLGKCQWNKIYNSDEESSSSESESNGDSEDDNDTSSES
notes: Prp38, S. cerevisiae, ORF amplified from genomic DNA; also called scPrp38; source: E. coli Rosetta 2 (DE3) or BL21 (DE3) RIL, purified (Ni-NTA, TEV cleavage, SEC); not shown: His6, N-terminal, cleaved
B3: Human MFAP1 (microfibrillar-associated protein 1) residues 267-344 (domain or fragment)
chain: not shown
notes: the minimal fragment used for crystallization of the hsPrp38-hsMFAP1 complex; source: E. coli Rosetta 2 (DE3) or BL21 (DE3) RIL, purified (Ni-NTA, TEV cleavage, SEC); not shown: His6, N-terminal, cleaved
B4: S. cerevisiae Snu23 (23 kDa small nuclear ribonucleoprotein component) residues 116-169 (domain or fragment, UniProt Q12368 116-169, looked up)
chain: LIIDIRDNDDVPQEEFELCYHNLIKDFVEVRSMETQSKRKRLLDTDVEKAKKVA

Key:
Conditions in all cases: both partners purified
[1] = biological target: B2; test: SEC; analytical gel filtration of two proteins: 50 uM each, equimolar, incubated 30 min at 4 °C in SEC buffer (10 mM Tris-HCl pH 8.0, 300 mM NaCl, 0.1 mM EDTA, 1 mM DTT); Superdex 75 or Superdex 200 Increase columns at 4 °C; peak fractions by SDS-PAGE
[2] = biological target: T1, S. cerevisiae Spp381 (pre-mRNA-splicing factor suppressor of prp38-1), full-length wild type (S. cerevisiae, UniProt P38282 1-291); test: as above
T1 construct: Spp381, S. cerevisiae, UniProt P38282, ORF amplified from genomic DNA; also called scSpp381; scSpp381^FL; source: E. coli Rosetta 2 (DE3) or BL21 (DE3) RIL, purified (Ni-NTA, TEV cleavage, SEC); not shown: His6, N-terminal, cleaved
T1 sequence (looked up): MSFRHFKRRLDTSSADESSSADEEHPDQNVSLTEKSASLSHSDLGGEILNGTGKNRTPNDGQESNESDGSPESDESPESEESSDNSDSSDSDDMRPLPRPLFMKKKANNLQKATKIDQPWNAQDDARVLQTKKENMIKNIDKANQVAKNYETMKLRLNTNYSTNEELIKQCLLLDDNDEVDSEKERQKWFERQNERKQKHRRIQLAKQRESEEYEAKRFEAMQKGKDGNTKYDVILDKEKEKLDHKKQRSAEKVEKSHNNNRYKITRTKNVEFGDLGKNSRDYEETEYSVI

[3] = biological target: B2; test: SEC; analytical gel filtration of three proteins (scSnu23 116-169, scPrp38, scSpp381 177-248) on a Superdex 75 10/300 column; fractions by SDS-PAGE

**Q.** Does B1 bind [1]?
**A.** binds

**Q.** Does B2 bind [2]?
**A.** binds

**Q.** Does B3 bind [1]?
**A.** binds

**Q.** Does B4 bind [3]?
**A.** binds
